Experiments:
[1] = biological target: T1, human APLP2 extracellular domain expressed with a C-terminal myc-myc-hexahistidine tag (human, UniProt Q06481 32-692); experiment: SPR, antibody captured, hAPLP2-MMH injected, 25 C
T1 construct: also called hAPLP2-MMH; APLP2.mmh

[2] = biological target: T2, human HER2 expressed on cells (cancer cell lines and normal primary cultures) (human, UniProt P04626 23-1255); experiment: imaging, Alexa647-labelled antibody on MDA-MB-361 cells at 4 C; No Block
T2 construct: Endogenous HER2 of the cell lines; the same cells also express APLP2; also called human epidermal growth factor receptor 2
Experimental: (§1) For the assay, cells were plated on collagen-coated, black wall, 96-well, optical plates (Greiner, Cat #655936) at 2.5×10⁵ cells per well in their appropriate culture media (described in previous examples), and incubated overnight at 37° C. in 5% CO₂. The next day, the cells were placed in refrigeration at 4° C. for 30 minutes. […] To each antibody solution, either PBS alone, human HER2 extracellular domain expressed with a C-terminal myc-myc-hexahistidine tag (hHER2-MMH; SEQ ID NO: 53) alone, human APLP2 extracellular domain expressed with a C-terminal myc-myc-hexahistidine tag (hAPLP2-MMH; SEQ ID NO: 54) alone, or the combination of hHER2-MMH and hAPLP2-MMH was added at a concentration of […]. After incubation, and removal of culture media, 50 μL/well of the bispecific antibody and soluble protein solutions were added to the cells for 30 minutes at 4° C. The cells were subsequently washed with 150 μL/well of DMEM containing 10% FBS at 4° C. for 10 minutes. […] The fixing buffer was then removed, 100 uL of DPBS/CM was added and allowed to incubate for approximately 20 minutes at room temperature prior to image acquisition. Binding of the bispecific antibodies to each of the cell types was measured using an Image Xpress^Micro automatic microscope (Molecular Devices). Data acquired was analyzed using MetaXpress software (Molecular Devices). […]

[3] = biological target: T3, human HER2 extracellular domain expressed with a C-terminal myc-myc-hexahistidine tag (human, UniProt P04626 23-652); experiment: SPR (Biacore 4000), antibody captured on anti-human Fc, hHER2-MMH injected, 37 C
T3 construct: also called hHER2-MMH; HER2.mmh
Experimental: (§2) Equilibrium dissociation constants (KD values) for HER2 and APLP2 binding to purified anti-HER2xAPLP2 bispecific and parental antibodies were determined using a real-time surface plasmon resonance biosensor using a Biacore 4000 instrument. The Biacore sensor surface was first derivatized by amine coupling with a monoclonal mouse anti-human Fc antibody (GE, Cat #BR-1008-39) to capture anti-HER2xAPLP2 bispecific monoclonal antibodies. […] Kinetic association rate constant (ka) and dissociation rate constant (kd) were determined by fitting the real-time sensorgrams to a 1:1 binding model using Scrubber 2.0c curve fitting software. Binding dissociation equilibrium constants (KD) and dissociative half-lives (t1/2) were calculated from the kinetic rate constants as: […]

[4] = biological target: T1, human APLP2 extracellular domain …; experiment: SPR (Biacore 4000), antibody captured on anti-human Fc, hAPLP2-MMH injected, 37 C
Experimental: as §2

[5] = biological target: T2, human HER2 expressed on cells (cancer …); experiment: imaging, Alexa647-labelled antibody on MDA-MB-361 cells at 4 C; competitor hHER2-MMH
Experimental: as §1

[6] = biological target: T2, human HER2 expressed on cells (cancer …); experiment: imaging, Alexa647-labelled antibody on MDA-MB-361 cells at 4 C; competitor hAPLP2-MMH
Experimental: as §1

[7] = biological target: T2, human HER2 expressed on cells (cancer …); experiment: imaging, Alexa647-labelled antibody on MDA-MB-361 cells at 4 C; competitors hHER2-MMH + hAPLP2-MMH
Experimental: as §1

[8] = biological target: T2, human HER2 expressed on cells (cancer …); experiment: imaging, Alexa647-labelled antibody 10 ug/mL at 4 C on NBE cells; signal per nuclei, normalised to the highest cell line
Experimental: (§3) After, cells were washed twice with cold DMEM+10% FBS. […] After, the solution was replaced with DPBS/CM. Binding of the bispecific antibodies to each of the cell types was measured using an Image Xpress^Micro automatic microscope (Molecular Devices). […] (See also FIG. 2.)
(§4) The signal of antibody binding (mean intensity fluorescence of Alexa647) divided by the nuclei signals was determined for each condition using MetaXpress software (Molecular Devices). Values were normalized to the cell line displaying the highest antibody binding signal.

[9] = biological target: T2, human HER2 expressed on cells (cancer …); experiment: imaging, Alexa647-labelled antibody 10 ug/mL at 4 C on NLE cells; signal per nuclei, normalised to the highest cell line
Experimental: as §3, §4

[10] = biological target: T2, human HER2 expressed on cells (cancer …); experiment: imaging, Alexa647-labelled antibody 10 ug/mL at 4 C on MCF7 cells; signal per nuclei, normalised to the highest cell line
Experimental: as §3, §4

[11] = biological target: T2, human HER2 expressed on cells (cancer …); experiment: imaging, Alexa647-labelled antibody 10 ug/mL at 4 C on T47D cells; signal per nuclei, normalised to the highest cell line
Experimental: as §3, §4

[12] = biological target: T2, human HER2 expressed on cells (cancer …); experiment: imaging, Alexa647-labelled antibody 10 ug/mL at 4 C on BT483 cells; signal per nuclei, normalised to the highest cell line
Experimental: (§5) To test the ability of bispecific anti-HER2xAPLP2 molecules described herein to bind to cells lines expressing various levels of HER2, a high content imaging assay was performed. […] Cells were plated on collagen-coated, black wall, 96-well, optical plates (Greiner, Cat #655936) at 2.5×10⁵ cells per well in their appropriate culture media, which is described for each cell line/culture in Table 6, and incubated overnight at 37° C. in 5% CO₂.
as §3, §4

[13] = biological target: T2, human HER2 expressed on cells (cancer …); experiment: imaging, Alexa647-labelled antibody 10 ug/mL at 4 C on SKBR3 cells; signal per nuclei, normalised to the highest cell line
Experimental: as §5, §3, §4

[14] = biological target: T2, human HER2 expressed on cells (cancer …); experiment: imaging, Alexa647-labelled antibody 10 ug/mL at 4 C on JIMT-1 cells; signal per nuclei, normalised to the highest cell line
Experimental: as §3, §4

[15] = biological target: T2, human HER2 expressed on cells (cancer …); experiment: imaging, Alexa647-labelled antibody 10 ug/mL at 4 C on MDA-MB-361 cells; signal per nuclei, normalised to the highest cell line
Experimental: as §3, §4

[16] = biological target: T2, human HER2 expressed on cells (cancer …); experiment: imaging, Alexa647-labelled antibody 10 ug/mL at 4 C on MDA-MB-453 cells; signal per nuclei, normalised to the highest cell line
Experimental: as §3, §4

[17] = biological target: T2, human HER2 expressed on cells (cancer …); experiment: imaging, Alexa647-labelled antibody 10 ug/mL at 4 C on MDA-MB-468 cells; signal per nuclei, normalised to the highest cell line
Experimental: as §3, §4

T1 sequence (Q06481 other isoform, or with tags, fused parts or gaps): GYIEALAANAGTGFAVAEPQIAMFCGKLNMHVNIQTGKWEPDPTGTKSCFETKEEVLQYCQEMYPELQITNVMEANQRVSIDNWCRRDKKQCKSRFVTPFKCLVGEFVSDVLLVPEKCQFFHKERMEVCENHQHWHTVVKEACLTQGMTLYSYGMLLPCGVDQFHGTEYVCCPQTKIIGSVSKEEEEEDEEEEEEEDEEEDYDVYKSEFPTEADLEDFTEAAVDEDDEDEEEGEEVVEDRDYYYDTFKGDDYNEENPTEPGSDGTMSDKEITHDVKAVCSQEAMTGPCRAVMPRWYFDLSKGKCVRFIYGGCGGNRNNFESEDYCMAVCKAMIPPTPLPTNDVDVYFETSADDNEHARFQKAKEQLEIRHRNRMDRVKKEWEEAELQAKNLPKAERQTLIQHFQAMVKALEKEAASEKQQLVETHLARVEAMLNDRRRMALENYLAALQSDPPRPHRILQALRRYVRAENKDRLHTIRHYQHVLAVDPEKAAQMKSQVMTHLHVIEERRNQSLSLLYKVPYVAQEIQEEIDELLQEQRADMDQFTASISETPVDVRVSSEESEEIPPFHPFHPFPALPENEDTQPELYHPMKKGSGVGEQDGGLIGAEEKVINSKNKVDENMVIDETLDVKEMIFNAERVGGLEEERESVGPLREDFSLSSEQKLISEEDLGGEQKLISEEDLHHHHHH

B1: H4H25017D (bispecific antibody, IgG4, V domains shown)
VH 1: QVQLVQSGPEVKKPGASVKVSCKASGYTFPNFGISWVRQAPGQGLEWMGWIAPYNVATNYAPKLQGRVTMTTDTSTSTAYMELRSLRSDDTAVYYCARWGAGYMGYYYYGMDVWGQGTTVTVSS
VH 2: EVQLVESGGGLVQPGGSLRLSCAASGFTFSTYVMSWVRQAPGKGPEWVSGISGRTGTTYYADSVKGRFTISRDNSKNTLYLQMNSLRAEDTAVYYCASRITAAGRGYYYYYGMDVWGRGTTVTVSS
VL: not shown
notes: Wild-type kappa CL and a modified (chimeric) IgG4 CH domain as set forth in US20140243504A1; also called bispecific anti-HER2xAPLP2 antibody
With B1 the “90 nM hAPLP2-MMH Bound (RU)” value [1] was 13.4 RU, the Kd [1] was 8.5 nM and the koff [1] was 0.000782 s⁻¹. The kon [1] was 92000 M⁻¹ s⁻¹, the t½ [1] was 14.8 min and the “Bispecific antibody signal (Fold over blank)” value [2] was 14 fold over blank. For the same binder, the Kd [3] was 4.85 nM, the koff [3] was 0.0009 s⁻¹ and the kon [3] was 186000 M⁻¹ s⁻¹. For the same binder, the t½ [3] was 13 min, the “100 nM hAPLP2-MMH Bound (RU)” value [4] was 13 RU and the Kd [4] was 281 nM. It also gave a koff [4] of 0.00977 s⁻¹, a kon [4] of 34700 M⁻¹ s⁻¹ and a t½ [4] of 1.2 min. For the same binder, the “Bispecific antibody signal (Fold over blank)” value [5] was 3 fold over blank, the “Bispecific antibody signal (Fold over blank)” value [6] was 13 fold over blank and the “Bispecific antibody signal (Fold over blank)” value [7] was 5 fold over blank. For the same binder, the “Antibody bound (% of highest)” value [8] was 10%, the “Antibody bound (% of highest)” value [9] was 4% and the “Antibody bound (% of highest)” value [10] was 9%. For the same binder, the “Antibody bound (% of highest)” value [11] was 7%, the “Antibody bound (% of highest)” value [12] was 22% and the “Antibody bound (% of highest)” value [13] was 100%. For the same binder, the “Antibody bound (% of highest)” value [14] was 17%, the “Antibody bound (% of highest)” value [15] was 35% and the “Antibody bound (% of highest)” value [16] was 31%. The “Antibody bound (% of highest)” value [17] was 1%.

— patent publication US20210246224A1 (Regeneron, published 2021)
